From IntAct's records for PubMed 21858148

Experiments:
apc_human APC [1] = molecular target: apc_human APC (UniProt P25054)
apc_human APC [2] = molecular target: apc_human APC (UniProt P25054); remark: listed apart in the source

Disks large homolog 1 (Homo sapiens), sequence (Q12959 whole entry, looked up, stated change not applied): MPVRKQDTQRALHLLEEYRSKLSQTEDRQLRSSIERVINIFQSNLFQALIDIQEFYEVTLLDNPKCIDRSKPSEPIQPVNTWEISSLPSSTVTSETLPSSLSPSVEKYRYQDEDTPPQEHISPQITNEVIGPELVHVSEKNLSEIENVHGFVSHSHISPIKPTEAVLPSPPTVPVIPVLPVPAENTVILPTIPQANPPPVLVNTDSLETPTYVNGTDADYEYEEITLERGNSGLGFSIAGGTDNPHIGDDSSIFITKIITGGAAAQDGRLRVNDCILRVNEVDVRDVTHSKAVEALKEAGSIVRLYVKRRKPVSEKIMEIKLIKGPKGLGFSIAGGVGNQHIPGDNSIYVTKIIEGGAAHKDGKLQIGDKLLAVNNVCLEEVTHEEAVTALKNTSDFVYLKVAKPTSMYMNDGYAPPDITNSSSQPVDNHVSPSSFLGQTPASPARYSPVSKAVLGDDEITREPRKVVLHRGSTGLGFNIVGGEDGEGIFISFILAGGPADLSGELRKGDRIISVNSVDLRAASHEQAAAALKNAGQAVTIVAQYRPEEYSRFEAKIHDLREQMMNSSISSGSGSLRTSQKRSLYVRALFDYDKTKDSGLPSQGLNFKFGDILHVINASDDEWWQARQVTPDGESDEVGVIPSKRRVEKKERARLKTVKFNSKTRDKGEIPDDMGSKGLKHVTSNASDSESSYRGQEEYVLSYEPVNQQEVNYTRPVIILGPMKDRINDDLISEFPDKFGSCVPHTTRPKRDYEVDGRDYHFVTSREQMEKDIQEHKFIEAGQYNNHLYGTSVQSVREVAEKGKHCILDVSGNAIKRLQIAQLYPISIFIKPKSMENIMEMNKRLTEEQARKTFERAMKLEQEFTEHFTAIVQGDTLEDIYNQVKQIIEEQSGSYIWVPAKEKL
apc_human APC, sequence (P25054 whole entry): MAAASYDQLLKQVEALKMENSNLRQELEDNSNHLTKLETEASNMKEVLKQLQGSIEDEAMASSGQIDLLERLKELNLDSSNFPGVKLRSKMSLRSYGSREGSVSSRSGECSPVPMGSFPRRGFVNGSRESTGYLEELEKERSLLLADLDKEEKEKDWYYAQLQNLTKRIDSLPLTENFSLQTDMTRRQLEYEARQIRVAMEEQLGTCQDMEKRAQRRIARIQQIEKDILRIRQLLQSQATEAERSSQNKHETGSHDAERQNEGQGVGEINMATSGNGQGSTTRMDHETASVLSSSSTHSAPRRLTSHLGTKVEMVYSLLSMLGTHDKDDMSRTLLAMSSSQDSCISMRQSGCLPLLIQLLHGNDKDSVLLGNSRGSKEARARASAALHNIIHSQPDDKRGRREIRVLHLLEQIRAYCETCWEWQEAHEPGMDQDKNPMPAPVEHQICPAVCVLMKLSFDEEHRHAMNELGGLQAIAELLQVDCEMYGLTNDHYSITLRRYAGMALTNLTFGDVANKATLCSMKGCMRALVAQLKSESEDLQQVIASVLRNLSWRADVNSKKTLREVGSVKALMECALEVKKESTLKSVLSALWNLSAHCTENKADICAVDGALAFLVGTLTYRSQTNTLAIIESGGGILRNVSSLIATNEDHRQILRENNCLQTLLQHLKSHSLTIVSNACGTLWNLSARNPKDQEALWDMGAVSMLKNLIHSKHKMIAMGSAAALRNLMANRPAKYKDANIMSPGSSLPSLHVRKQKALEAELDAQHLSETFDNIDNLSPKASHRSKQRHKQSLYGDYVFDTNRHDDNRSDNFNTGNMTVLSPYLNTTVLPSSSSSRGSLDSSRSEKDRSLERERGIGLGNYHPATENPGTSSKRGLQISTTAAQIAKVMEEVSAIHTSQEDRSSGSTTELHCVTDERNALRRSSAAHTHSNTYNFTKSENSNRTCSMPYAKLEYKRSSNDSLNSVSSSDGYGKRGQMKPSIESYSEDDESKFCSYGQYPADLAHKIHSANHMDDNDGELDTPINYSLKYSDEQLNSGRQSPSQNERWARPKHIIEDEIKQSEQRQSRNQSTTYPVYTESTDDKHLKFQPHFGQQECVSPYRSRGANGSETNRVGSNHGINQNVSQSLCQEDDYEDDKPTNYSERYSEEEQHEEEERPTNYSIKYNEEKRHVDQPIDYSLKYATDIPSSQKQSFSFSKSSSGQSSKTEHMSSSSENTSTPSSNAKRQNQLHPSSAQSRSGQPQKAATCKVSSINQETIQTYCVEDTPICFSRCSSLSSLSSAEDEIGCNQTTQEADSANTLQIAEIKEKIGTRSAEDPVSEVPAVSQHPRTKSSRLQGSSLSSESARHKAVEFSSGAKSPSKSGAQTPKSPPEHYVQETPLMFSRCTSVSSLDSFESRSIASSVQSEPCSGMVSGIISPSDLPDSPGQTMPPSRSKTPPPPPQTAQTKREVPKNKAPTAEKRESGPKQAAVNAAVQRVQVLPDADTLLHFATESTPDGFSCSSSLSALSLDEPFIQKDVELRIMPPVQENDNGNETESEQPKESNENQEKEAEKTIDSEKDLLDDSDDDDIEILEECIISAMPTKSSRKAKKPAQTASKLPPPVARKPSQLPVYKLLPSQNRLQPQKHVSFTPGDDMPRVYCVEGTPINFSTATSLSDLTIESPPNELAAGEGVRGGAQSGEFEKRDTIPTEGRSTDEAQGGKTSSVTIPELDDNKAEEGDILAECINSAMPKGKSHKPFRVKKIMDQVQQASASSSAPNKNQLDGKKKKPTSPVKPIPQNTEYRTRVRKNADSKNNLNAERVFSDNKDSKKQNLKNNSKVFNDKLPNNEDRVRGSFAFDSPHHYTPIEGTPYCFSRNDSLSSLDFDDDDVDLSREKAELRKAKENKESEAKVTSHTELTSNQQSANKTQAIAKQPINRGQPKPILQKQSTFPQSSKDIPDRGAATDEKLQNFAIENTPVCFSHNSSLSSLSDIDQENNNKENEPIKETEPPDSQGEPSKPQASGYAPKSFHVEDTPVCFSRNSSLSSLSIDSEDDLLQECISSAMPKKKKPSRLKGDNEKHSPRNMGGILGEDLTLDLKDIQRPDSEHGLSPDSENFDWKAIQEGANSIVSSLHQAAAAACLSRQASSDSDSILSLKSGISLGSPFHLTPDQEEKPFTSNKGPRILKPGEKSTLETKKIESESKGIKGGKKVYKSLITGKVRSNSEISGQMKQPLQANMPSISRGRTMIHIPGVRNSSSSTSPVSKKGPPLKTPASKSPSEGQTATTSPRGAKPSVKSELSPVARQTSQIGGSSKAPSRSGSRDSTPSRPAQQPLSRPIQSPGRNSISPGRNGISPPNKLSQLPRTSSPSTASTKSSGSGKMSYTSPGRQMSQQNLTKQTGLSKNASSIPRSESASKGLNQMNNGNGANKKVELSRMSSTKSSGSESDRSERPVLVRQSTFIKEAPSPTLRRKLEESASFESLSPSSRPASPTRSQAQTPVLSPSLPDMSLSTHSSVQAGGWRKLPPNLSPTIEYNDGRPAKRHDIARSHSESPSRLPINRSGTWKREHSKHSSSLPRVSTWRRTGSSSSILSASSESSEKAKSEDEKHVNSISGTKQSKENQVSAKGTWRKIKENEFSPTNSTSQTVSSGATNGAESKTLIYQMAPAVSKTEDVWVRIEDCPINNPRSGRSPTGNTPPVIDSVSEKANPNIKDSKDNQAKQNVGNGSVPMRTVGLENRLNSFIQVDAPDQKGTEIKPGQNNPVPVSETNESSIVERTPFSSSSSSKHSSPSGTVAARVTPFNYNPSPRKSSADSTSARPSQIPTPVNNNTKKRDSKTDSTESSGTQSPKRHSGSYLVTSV

effect of a mutation on the interaction (apc_human APC [1]): decreasing interaction strength
effect of a mutation on the interaction (apc_human APC [2]): disrupting interaction strength
Substance: Disks large homolog 1 (Homo sapiens) (from UniProt Q12959) Q340P
